Source: paper PMC12208494, “The zinc metalloprotein MigC impacts cell wall biogenesis through interactions with an essential Mur ligase in Acinetobacter baumannii” (PLOS Pathogens, 2025)

B1: MigC (A1S_0934) (Acinetobacter baumannii) (protein)
chain: MKLIAQKTVPTHIISGFLGAGKTTLLQHLLSQKPKDEVWAVLMNEFGQIGVDQQLLPQDQGYAVKELLGGCLCCSSQLPMHIALARLLSEQKPDRLFIEPTGLGHPSQLFDQLTEPHWQNSLAMRALVTVVDGSRLHDTNWVKQNLYEDQLKAAQIVVVSHADTMTFEDEQALVELKEEYQPYQQQWLKTEHGQLELAQIDVPARLTERSIQPLLKLQKQMTEAEVVKEIHQLPYHYVETAQGYMVAGWKFPKRWKFEFYALLDVLCAQQDWLRIKGIFNTDQGWKTFNFNPEQFNYKSGEEGIDNRIEMISQHEHDWLAFETELLACRIEQ
notes: pre-loaded with 1 equivalent Zn; UniProt ID is the one representing MigC in a homologue alignment and may be from another strain
B2: MurD (Acinetobacter baumannii ATCC 17978) (protein)
chain: MLIQRGGLKVVAGLGISGVSAVNFLHEQGYQVAVTDSRPTPPGHDQIPAGVKTSFGQLDQELLLQAEEIILSPGLAPQLPEIQAAIAKGISVVGDIQLLRRATDVPIVAITGSNAKSTVTTLIGLMAKDAGKKVAVGGNLGRPALDLLKDQPELLVLELSSFQLETTSHLNAEVAVVLNMSEDHLDRHGNMLGYHQAKHRIFQGAKKVVFNRDDALSRPLVPDTTPMQSFGLNAPDLNQYGVLRDADGTLWLACGLQRLIKSSDLYIQGMHNVANALACLALGEAIGLPMESMLETLKQFKGLEHRCEYVKTVHDVRYYNDSKGTNVGATLAAIDGLGAAIEVKKGKVALILGGQGKGQDFSPLRSSIEKYAKVVVLIGEDAPVIEQAIQGATKILHAATLKEAVELCQRETQAEDVVLLSPACASFDMFKSYNDRGQQFVACVNSLV
notes: full length, N-terminal 6xHis tag removed by TEV protease, E. coli BL21(DE3)

Columns and labels:
Type in all cases: biochemical, Acinetobacter baumannii
[1] = substrate: Nc1ncnc2c1ncn2[C@@H]1O[C@H](COP(=O)(O)OP(=O)(O)OP(=O)(O)O)[C@@H](O)[C@H]1O; test: malachite green phosphate release; settings: Zn-bound MigC (1 equivalent Zn), 2 mM MgCl2, 150 mM KCl, pH 7.4, 37 °C
[2] = substrate: Nc1nc2c(ncn2[C@@H]2O[C@H](COP(=O)(O)OP(=O)(O)OP(=O)(O)O)[C@@H](O)[C@H]2O)c(=O)[nH]1; test: malachite green phosphate release; settings: Zn-bound MigC (1 equivalent Zn), 2 mM MgCl2, 150 mM KCl, pH 7.4, 37 °C
HPLC of UMAG formation = substrate: Nc1ncnc2c1ncn2[C@@H]1O[C@H](COP(=O)(O)OP(=O)(O)OP(=O)(O)O)[C@@H](O)[C@H]1O; test: HPLC of UMAG formation; settings: 200 µM UMA, 1 mM D-glutamate, 2 mM MgCl2, 500 µM GTP, BSA added (no MigC), pH 7.4, 37 °C

Row | Protein | Km [1] | Km [2] | Km (HPLC of UMAG formation)
1 | B1 | 51.1 ± 12 µM | 110 ± 14 µM | 
2 | B2 |  |  | 149 ± 25 µM
